Experimental data from paper PMC5095703 (Biochemistry, 2016).

What was measured:
[1] = test system: Cc1cn([C@H]2C[C@H](O)[C@@H](COP(=O)(O)OP(=O)(O)O[C@H]3O[C@H](C)[C@H](O)[C@H](N)[C@H]3O)O2)c(=O)[nH]c1=O; assay: purified protein; conditions: 1 mM 3-hydroxybutanoyl-CoA, 50 mM HEPES pH 7.5, 5 mM DTNB
[2] = biological target: FdhC-C-term tag (Acinetobacter nosocomialis, UniProt V5RDR9); assay: X-ray crystal structure, […] Å; format: binding; conditions: ternary complex with dTDP-Fuc3N(R3Hb) (also with dTDP-Qui3N(R3Hb)), pH 5.0
[3] = test system: CC(=O)SCCNC(=O)CCNC(=O)[C@H](O)C(C)(C)COP(=O)(O)OP(=O)(O)OC[C@H]1O[C@@H](n2cnc3c(N)ncnc32)[C@H](O)[C@@H]1OP(=O)(O)O; assay: purified protein; conditions: 5 mM dTDP-Fuc3N, 50 mM HEPES pH 7.5, 5 mM DTNB
[4] = test system: Cc1cn([C@H]2C[C@H](O)[C@@H](COP(=O)(O)OP(=O)(O)O[C@H]3O[C@H](C)[C@@H](O)[C@H](N)[C@H]3O)O2)c(=O)[nH]c1=O; assay: purified protein; conditions: 1 mM 3-hydroxybutanoyl-CoA, 50 mM HEPES pH 7.5, 5 mM DTNB

Row | Molecule | Km [1] | kcat [1] | kcat/Km [1] | X-ray crystal structure, 1.8 Å [2] | Km [3] | kcat [3] | kcat/Km [3] | Km [4] | kcat [4] | kcat/Km [4]
1 | FdhC-C-term tag (Acinetobacter nosocomialis) | 1500 ± 200 µM | 38.3 ± 1.9 s⁻¹ | 26000 M⁻¹ s⁻¹ | – | – | – | – | – | – | –
2 | CC(C)(COP(=O)(O)OP(=O)(O)OC[C@H]1O[C@@H](n2cnc3c(N)ncnc32)[C@H](O)[C@@H]1OP(=O)(O)O)[C@@H](O)C(=O)NCCC(=O)NCCS [CoA] | – | – | – | the observed electron density for the CoA and the dTDP-Fuc3N(R3Hb) ligands | – | – | – | – | – | –
3 | FdhC (Acinetobacter nosocomialis) | 650 ± 70 µM | 52.7 ± 2.1 s⁻¹ | 81000 M⁻¹ s⁻¹ | – | 40 ± 10 µM | 0.0034 ± 0.0002 s⁻¹ | 85 M⁻¹ s⁻¹ | 5300 ± 800 µM | 24.7 ± 1.7 s⁻¹ | 4700 M⁻¹ s⁻¹
